Consider 1 substance from patent US20100015126A1, “Methods of Binding of Cross-Beta Structures By Chaperones” (priority 2006, published 2010).

Test [1] addresses IGLC1 protein (immunoglobulin lambda C1)/immunoglobulin lambda chain/immunoglobulin C1 segment protein (fragment) (human) (UniProt P0CG04). Kind of test: BiP-Sepharose pull-down, RA patient IV synovial fluid (B6), MS of urea eluate; may be indirect.
Test [2] concerns the target Immunoglobulin heavy constant mu (IPI00479708) (human) (UniProt P01871). Described as above.
The target in test [3] is Ig heavy chain V-III region CAM (human) (UniProt P01768). The test is described as above.
The target of test [4] is fibronectin 1 isoform 4 preproprotein (human) (UniProt P02751). Briefly: BiP-Sepharose pull-down, RA synovial fluid sample 2B, 1 M NaCl eluate, MS; may be indirect.
In test [5] the target is Hypothetical protein DKFZp686I04196 (Fragment)/Immunoglobulin heavy constant gamma 2 (G2m marker)/Ig gamma-2 chain C region (human) [IgG part: P01859]. Described as above.
The target of test [6] is Clusterin precursor (human) (UniProt P10909). Described as above.
Test [7] has as its target IGHG4 protein, immunoglobulin heavy constant gamma 4 (human) [IgG part: P01861]. Described as above.
In test [8] the target is IGHM protein, coagulation factor VII (serum prothrombin conversion accelerator) (human) (UniProt P08709). The description is as above.
Test [9] deals with Hypothetical protein/Heat shock 70 kDa protein 5 (glucose-regulated protein, 78 kDa = GRP78 = BiP = HSPA5), as identified in eluates (human) (UniProt P11021). Briefly: BiP-Sepharose pull-down, RA synovial fluid sample 1B, 1 M NaCl eluate, MS; BiP may stem from the column.
Test [10] deals with Isoform H17 of Myeloperoxidase precursor (human) (UniProt P05164). Briefly: BiP-Sepharose pull-down, RA synovial fluid sample 4B, 1 M NaCl eluate, MS; may be indirect.
Test [11] concerns the target IGHM protein, coagulation factor VII (serum prothrombin conversion accelerator) (human) (UniProt P08709). The description is as above.

Sequence of Immunoglobulin heavy constant mu (IPI00479708) (human) (P01871 other isoform, or with tags, fused parts or gaps limits assumed): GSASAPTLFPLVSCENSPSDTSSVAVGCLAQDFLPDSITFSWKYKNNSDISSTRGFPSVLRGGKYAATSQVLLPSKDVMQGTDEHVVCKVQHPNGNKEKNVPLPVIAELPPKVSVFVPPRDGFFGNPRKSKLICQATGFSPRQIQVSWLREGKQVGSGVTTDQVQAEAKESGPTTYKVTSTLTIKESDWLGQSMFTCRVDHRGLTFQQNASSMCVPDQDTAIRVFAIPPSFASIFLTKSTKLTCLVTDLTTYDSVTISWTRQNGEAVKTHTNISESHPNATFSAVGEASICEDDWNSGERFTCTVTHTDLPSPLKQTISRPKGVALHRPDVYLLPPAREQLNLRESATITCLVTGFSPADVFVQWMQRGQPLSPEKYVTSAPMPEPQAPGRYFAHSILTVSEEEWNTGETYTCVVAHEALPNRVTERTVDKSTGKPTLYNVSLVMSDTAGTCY
Sequence of Hypothetical protein/Heat shock 70 kDa protein 5 (glucose-regulated protein, 78 kDa = GRP78 = BiP = HSPA5), as identified in eluates (human) (P11021 19-654 limits assumed): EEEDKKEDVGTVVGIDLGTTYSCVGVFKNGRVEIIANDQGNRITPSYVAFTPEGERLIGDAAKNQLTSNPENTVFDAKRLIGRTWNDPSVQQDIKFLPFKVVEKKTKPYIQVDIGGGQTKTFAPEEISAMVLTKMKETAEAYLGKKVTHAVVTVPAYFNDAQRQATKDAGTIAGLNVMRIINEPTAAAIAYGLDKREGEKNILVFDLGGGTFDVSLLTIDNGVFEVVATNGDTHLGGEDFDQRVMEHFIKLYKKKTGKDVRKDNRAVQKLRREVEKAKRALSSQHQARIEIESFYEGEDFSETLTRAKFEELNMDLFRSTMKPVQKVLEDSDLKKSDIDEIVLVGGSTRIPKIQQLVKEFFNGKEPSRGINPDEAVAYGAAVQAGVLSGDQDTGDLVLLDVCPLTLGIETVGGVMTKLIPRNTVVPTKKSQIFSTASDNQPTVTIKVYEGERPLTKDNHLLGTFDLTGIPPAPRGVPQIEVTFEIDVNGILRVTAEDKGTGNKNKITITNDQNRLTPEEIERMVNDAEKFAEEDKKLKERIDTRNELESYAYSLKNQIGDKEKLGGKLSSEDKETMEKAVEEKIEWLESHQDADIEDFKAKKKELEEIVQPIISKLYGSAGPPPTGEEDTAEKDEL
Sequence of Hypothetical protein DKFZp686I04196 (Fragment)/Immunoglobulin heavy constant gamma 2 (G2m marker)/Ig gamma-2 chain C region (human) [IgG part: P01859] (P01859 other isoform, or with tags, fused parts or gaps limits assumed): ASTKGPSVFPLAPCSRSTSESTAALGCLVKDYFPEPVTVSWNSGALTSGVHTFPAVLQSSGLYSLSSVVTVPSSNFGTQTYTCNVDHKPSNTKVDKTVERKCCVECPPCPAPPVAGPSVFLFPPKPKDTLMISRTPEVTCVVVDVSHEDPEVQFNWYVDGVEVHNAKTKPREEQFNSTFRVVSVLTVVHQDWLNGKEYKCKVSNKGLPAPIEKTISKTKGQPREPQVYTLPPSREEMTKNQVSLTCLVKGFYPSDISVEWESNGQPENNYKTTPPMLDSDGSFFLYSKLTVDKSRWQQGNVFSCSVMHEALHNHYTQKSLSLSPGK
Sequence of Clusterin precursor (human) (P10909 23-449 limits assumed, form in doubt): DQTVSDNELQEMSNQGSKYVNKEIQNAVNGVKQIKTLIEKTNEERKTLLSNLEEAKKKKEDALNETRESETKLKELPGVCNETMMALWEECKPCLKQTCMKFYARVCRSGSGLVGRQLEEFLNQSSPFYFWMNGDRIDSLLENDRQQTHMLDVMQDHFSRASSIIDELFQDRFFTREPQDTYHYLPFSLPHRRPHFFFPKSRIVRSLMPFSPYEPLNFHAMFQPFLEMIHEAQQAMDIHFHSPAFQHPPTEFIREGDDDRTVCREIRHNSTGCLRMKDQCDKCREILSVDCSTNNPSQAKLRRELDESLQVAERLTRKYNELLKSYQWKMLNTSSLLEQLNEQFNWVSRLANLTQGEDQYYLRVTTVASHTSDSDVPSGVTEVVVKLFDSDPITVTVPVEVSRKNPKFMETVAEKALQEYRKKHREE
Sequence of IGLC1 protein (immunoglobulin lambda C1)/immunoglobulin lambda chain/immunoglobulin C1 segment protein (fragment) (human) (P0CG04 whole entry, the tested form may be a part): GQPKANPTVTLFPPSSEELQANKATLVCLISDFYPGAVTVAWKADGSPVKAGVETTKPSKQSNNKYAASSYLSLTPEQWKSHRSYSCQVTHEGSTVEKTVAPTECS
Sequence of Ig heavy chain V-III region CAM (human) (P01768 20-117 limits assumed): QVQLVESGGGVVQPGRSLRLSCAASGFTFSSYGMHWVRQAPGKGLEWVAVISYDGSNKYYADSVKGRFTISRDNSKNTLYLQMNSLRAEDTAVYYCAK
Sequence of IGHG4 protein, immunoglobulin heavy constant gamma 4 (human) [IgG part: P01861] (P01861 other isoform, or with tags, fused parts or gaps limits assumed): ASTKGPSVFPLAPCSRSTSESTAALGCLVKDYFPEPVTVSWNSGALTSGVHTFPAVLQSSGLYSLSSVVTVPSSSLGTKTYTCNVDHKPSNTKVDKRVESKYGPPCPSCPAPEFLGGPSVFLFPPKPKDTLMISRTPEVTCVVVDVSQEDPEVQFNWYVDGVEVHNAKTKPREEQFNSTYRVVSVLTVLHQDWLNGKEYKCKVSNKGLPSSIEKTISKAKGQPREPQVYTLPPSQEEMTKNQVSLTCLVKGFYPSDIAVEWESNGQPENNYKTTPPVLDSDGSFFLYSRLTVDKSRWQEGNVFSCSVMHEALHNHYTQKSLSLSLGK
Sequence of fibronectin 1 isoform 4 preproprotein (human) (P02751 other isoform, or with tags, fused parts or gaps limits assumed): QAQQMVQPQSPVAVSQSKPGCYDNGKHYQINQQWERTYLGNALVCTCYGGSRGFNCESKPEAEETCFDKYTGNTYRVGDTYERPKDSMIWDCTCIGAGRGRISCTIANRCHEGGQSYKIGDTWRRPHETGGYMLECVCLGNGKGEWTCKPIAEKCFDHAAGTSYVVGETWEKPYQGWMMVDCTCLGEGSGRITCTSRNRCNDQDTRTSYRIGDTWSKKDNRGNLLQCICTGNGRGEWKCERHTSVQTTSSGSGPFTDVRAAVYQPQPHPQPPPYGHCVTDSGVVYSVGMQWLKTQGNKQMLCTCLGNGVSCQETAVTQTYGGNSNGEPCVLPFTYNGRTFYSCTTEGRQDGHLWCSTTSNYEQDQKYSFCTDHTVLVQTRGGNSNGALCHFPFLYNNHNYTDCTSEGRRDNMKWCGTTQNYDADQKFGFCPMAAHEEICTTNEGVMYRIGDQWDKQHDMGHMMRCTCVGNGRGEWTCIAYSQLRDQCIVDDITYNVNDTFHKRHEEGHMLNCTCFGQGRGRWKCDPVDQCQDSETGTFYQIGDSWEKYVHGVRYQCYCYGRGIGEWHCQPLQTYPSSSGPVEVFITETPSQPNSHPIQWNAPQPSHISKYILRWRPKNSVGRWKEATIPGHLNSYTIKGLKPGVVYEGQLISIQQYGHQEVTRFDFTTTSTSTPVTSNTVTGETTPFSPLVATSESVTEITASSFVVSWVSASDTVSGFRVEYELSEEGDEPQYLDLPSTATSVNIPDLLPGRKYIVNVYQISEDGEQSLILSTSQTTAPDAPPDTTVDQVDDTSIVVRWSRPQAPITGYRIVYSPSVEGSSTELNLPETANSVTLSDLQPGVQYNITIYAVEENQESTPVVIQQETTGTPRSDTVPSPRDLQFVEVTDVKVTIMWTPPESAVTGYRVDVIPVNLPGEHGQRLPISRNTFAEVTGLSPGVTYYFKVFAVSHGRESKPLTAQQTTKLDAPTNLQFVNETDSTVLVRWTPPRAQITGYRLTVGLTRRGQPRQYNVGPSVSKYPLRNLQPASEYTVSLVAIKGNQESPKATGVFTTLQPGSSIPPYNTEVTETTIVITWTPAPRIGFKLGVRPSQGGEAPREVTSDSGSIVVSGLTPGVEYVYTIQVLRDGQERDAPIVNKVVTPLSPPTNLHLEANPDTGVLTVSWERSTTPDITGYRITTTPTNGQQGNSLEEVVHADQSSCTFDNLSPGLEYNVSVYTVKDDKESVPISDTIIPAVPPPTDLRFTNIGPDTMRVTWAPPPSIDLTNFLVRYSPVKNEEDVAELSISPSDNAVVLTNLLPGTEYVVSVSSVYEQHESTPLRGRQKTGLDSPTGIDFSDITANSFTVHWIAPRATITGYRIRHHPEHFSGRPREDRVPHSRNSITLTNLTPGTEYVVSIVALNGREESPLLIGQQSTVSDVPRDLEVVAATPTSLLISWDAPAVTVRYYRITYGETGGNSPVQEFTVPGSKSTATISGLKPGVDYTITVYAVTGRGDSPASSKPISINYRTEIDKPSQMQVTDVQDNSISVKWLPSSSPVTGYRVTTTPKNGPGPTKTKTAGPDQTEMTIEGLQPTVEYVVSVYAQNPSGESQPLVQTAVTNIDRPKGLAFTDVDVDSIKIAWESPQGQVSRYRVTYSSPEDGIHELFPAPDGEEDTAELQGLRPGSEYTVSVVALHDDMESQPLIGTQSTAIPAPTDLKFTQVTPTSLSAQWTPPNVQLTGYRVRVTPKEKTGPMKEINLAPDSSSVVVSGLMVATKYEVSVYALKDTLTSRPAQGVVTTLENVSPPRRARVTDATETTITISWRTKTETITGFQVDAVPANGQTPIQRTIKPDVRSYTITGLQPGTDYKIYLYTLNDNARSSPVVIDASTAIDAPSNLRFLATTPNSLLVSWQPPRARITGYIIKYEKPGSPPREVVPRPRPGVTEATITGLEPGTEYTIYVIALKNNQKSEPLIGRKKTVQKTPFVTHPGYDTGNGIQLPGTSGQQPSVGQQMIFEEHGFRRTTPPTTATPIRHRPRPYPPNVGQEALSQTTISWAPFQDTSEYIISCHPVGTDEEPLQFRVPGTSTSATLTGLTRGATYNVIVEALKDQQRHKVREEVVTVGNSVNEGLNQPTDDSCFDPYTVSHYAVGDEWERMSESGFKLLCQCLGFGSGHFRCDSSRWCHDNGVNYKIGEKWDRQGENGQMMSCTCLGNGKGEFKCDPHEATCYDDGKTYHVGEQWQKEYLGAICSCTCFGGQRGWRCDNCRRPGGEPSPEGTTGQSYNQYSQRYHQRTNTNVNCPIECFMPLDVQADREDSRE

Turning to “recombinant human BiP with C-terminal linker, FLAG-tag and His-tag (BiP-FLAG-His) (from UniProt P11021 19-654)”, the # of peptides in test [1] was 1 peptides; in test [2], 1 peptides; in test [3], 2 peptides. In addition, the # of unique peptides in test [4] worked out at 2 peptides; in test [5], 1 peptides; in test [6], 1 peptides; in [7], 1 peptides; in [8] it was 1 peptides; in test [9] it was 21 peptides. Besides, the # of unique peptides in test [10] and in [11] was 1 peptides throughout.
